This note sets out measurements from the nanobody polyreactivity screen of Harvey et al. (2022).

This data set in a line: yeast display, Sf9 membrane polyspecificity reagent, FACS + sequencing; frameworks hold sequencing errors. In outline:
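Polyreactivity labels are assigned by the sorting gate from which each nanobody was recovered. The gates were low and high (top ~1%), set on anti-HA fluorescence for expression and streptavidin fluorescence for reagent binding. Before sorting, galactose-induced (36–48 hours) yeast display cells were stained for 1 hour at 4 °C with 10% biotinylated, detergent-solubilized Sf9 membrane reagent.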
For the sequence “QVLLVESGGGLVQAGGSLRLSCAASGRIFGYNTMGWYRQAPGKERELVASISYSGGGTYYADSVKGRFTISRDNAKNTVYLQMNSLKPEDTAVYYCNALSYGYDDAYGYWGQGTQVTVSS”, the “polyreactivity (PSR sort gate)” value is reported as “low polyreactivity”.
For “QVLLVESGGGLVQAGGSLRLSCAASGYIIDVNAMGWYRQAPGKERELVASISSGTSTYYADSVKGRFTISRDNAKNTVYLQMNSLKPEDTAVYYCNAGVEFAASLYYSDNYDYWGQGTQVTVSS” the value was “low polyreactivity”; for “QVLLVESGGGLVQAGGSLRLSCGASGITFAEYAMGWYRKAPGKEREFVAAISRRGGSTYYADSVKGRFTISRDNAKNTVYIQMNTLKPEDTAVYYCNRRYDTFRFEHDYDYWGQGTQVTVSS”, “low polyreactivity”; for “QVLLVETGGGLVQAGGSLRLSCAASGLIFYDNMGWYRQAPGKERELVAAISSSGGSTSYADSVKGRFTISRDNAKNTVYLQMNSLKPEDTAVYYCAADSYPAYLGFVGFDYWGQGTQVTVSS”, “low polyreactivity”.
The value for “QVNLVESGGGLVQAGGSLRLSCAASGLIFFYAMGWYRQAPGKERELVAGISSGGNTNYGDSVKGRFTISRDNAKNTVYLQMNSLKPEDTAVYYCNARGFTGDHQWYLWARPLYDYWGQGTQVTVSS” was “high polyreactivity”; that for “QVNLVESGGGLVQAGGSLRLSCAASGRTFRFYVMGWYRQAPGKERELVAVIRYRGGSTYYADSVKGRFTISRDNAKNTVYLHMNSLKPEDTAVYYCNADFLLAGNEYDFWGQGTQVTVSS” was “high polyreactivity”.
Consider “QVPLEESGGGLVQAGGSLRLSCAASGFIIGLNAMGWYRQAPGKERELVAVITFSGGSTYYADSVKGRFTISRDNAKNTVFFQMNSLKPEDTAVYYCAARYYWYSVGYGYWGQGTQVTVSS”, for which the “polyreactivity (PSR sort gate)” value is recorded as “high polyreactivity”.
For “QVPLEESGGGLVQAGGSLRLSCAASGSIFMTYSMGWYRKAPGNERELVAAISWRGGSTYYADSVKGRFTISRDNAKNTVYLQMNSMKPVDTAVYYCAADYYRYGYQGSTTEDDYWGQGTLVTVSS” the value was “low polyreactivity”; for “QVPLEESRGGLVQAGGSLRLSCAASGTIFVAYDMGWYRQAPGKERELVAAIDSVGRTNYADSVKGRFTISRDNAKNTVYLQMNSLKPEDTAVYYCNADQYYSFYDPDDYWGQGTQVTVSS”, “low polyreactivity”; for “QVPLVESAGGLVQAGGSLRLSCAASGSTFYPYAMGWYRQAPGKERELVAAISSGGSTSYADSVKGRFTISRDNAKNTVYLQMNSLKPEDTEVYYCHASSPGAVPVYDYDYWGQGTQVTVSS”, “low polyreactivity”.
The value for “QVPLVESGGGLVQAGGSLRISCAACGIIFFPYAMGWYRQAPGKEREFVAAITSRGGSTYYADSVKGRFTISRDNAKNTVYLQMNSLKPEDTAVYFCAADHLGRARGPWRYNYWGQGTQVTVSS” was “low polyreactivity”; that for “QVPLVESGGGLVQAGGSLRLMCAASGRIFALYAMGWYRQAPGKERELVAAISWSAGRTYYADSVKGRFTISRDNAKNTVYLQMNSLKPEDTAVYYCAADTGRQYDYWGQGTQVTVSS” was “high polyreactivity”; that for “QVPLVESGGGLVQAGGSLRLSCAASGRISGYYDMGWYRQAPGKERELVATITSDGGTNYADSVKGRFTISRDNAKNTVYLQMNSLKPEDTAVYYCAAYGWYTKWHFAFGYWGQGTQVTVSS” was “low polyreactivity”.
For “QVPLVESGGGLVQAGGSLRLSCAASGSIFYTNAMGWSIPAPGKERELVARLSSSSGRTYYADSVKGRFPISRDNAKNTVYLKMKSLIPDYTAVYYCAARYLLRRHTNMDYWGHGTQVTVSS” the value was “high polyreactivity”; for “QVPLVESGGGLVQAGGSLRLSCAASGSTLYGYAMGWSSQAPGKERELVAAISYSGGRTFYADSVKGRFTISRDNAKNTVYLQMNSLKPADSAVYYCAAEYTVYVTDWYDYYDWGQGTQVTVAS”, “low polyreactivity”.
Take “QVPLVESGGGLVQAGGSLRLSCAPSGSTYYFYTMGWYIQAPGKERELVAAIRDSGSSTYYADSVKGRFTISRDNAKNTVYLQMNSLKPEDTAVYYCATGVDTYSLTVEHDSWGQGTQVTVSS”: the “polyreactivity (PSR sort gate)” value is recorded as “low polyreactivity”.
For “QVPLVESGGGLVQGGGSLRLSCAASGSIFRGNAMGWYRQAPGKERELVAAISKSGGSTYYADSVKGRFTISRDNAKNTVYLHMNSLKPEDTAVYYCAARTTYLYGRYYWGQGTQVTVSS” the value was “low polyreactivity”; for “QVPLVESGGGVVQAGGSLRLSCAASGSIFNVNAMGWYRPAPGKERELVAAISSGGDTYYADSLKGRFTISRDNAKNTVYLQMNSLKPEDTAVYYCAAEIYTAYYEFDYWGQGTQVTVSS”, “low polyreactivity”; for “QVPLVESGGVLVQAGGSLRLSFAASGRIYENAMGWYRQAPVNERELVAVISWSGGSKSYADSVKRRLTISRDNAMNTVYFQMNRLKPEDTAVYYCNAYRLLSRRYYYLGQGTQVTVSS”, “low polyreactivity”.
For the sequence “QVPLVESGVGLVQAGGSLRLSCAASGSIFSYYAMGWYRQATGKERELVAAITVRGGSTYYADSVKGRFSISRDNAKNTVYLQMYSLIPEDTAVYYCAAVWLDESFSYGPYYYWGQGTQVTVSS”, the “polyreactivity (PSR sort gate)” value is “low polyreactivity”.
For “QVPLVESGVGLVQAGGSLRLSCAASGSTISYYYMGWYRQAPGKEREFVAAIRRRGSSTYYADSVKGRFTISRDNAKNTVYLQINSLKPEDTAVYYCAKRTIAGRGRQYDYWGQGTQVSVSS” the value was “high polyreactivity”; for “QVQFVESGGALVQAGGSLRLSCAASGSTFQGYAMGWYRQAPGKETELVAAISRSGGRTYYADSVTGRFTISRDNAKNTVYLQMISLKPEDTAVYYCAAEGHELTDGDSWGQGTQVTVSS”, “low polyreactivity”; for “QVQFVESGGGLVQAGGSLRLSCAASGFTFVWYDMGGYRQAPGKERELVAAISSGGSTYYADSVKGRFTISRDNAKNTVYLQMNSLKPEDTAVYYCAVYTGYYNYIYQYDYWGQGTQVTVSS”, “low polyreactivity”.
Regarding “QVQFVESGGGLVQAGGSLRLSCAASGFTFVWYDMGWYRQAPGKERELVAAISSGGSTYYADSVKGRFTISRDNAKNTVYLQMNSLKPEDTAVYYCAVYTGYYNYIYQYDYWGQGTQVTVSS”, the “polyreactivity (PSR sort gate)” value is given as “low polyreactivity”.
The value for “QVQGVESGGGLVQAGGSLRLSCAASGLTFKENVMGWYRKAPGKERELVAAISTGASTYYADSVKGRFTISRDNANNTVYLQMNSLKPEDTAVYYCAAERWAQGYTYEYWGQGTQVTVSS” was “high polyreactivity”; that for “QVQHEESGGGLVQAGGSLRLSCAASGRIFFGKVMGGYRQAPGTERELVAVITSGGNTNYADSVKGRFTISRDNAKNTVYLQMHSLKPEDTAVYYCATAVVAGVWGYDYWGQGTQVTVSS” was “low polyreactivity”; that for “QVQHEESGGGLVQAGGSLRLSCAASGRIFGTDAMGWFRQAPGKDRELVAAIRSSGDSTYYADSVKGRFTISRDNAKNTVYLQMNSLKPEDTAVYYCARTLRYYRPVLLVYRFGYWGQGTQVTVSS” was “high polyreactivity”.
As to “QVQHEESGGGLVQAGGSLRLSCAASGRIFHFNTMGWYRQAPGKERELVAAITSSGGSTNYADSVKGRFTISRDNAKNTVYLQMNSLKPEDTAVYYCNADTGAADYFDFDYWGQGTQVTVSS”, the “polyreactivity (PSR sort gate)” value is given as “low polyreactivity”.
As for “QVQHEESRGGLVQAGGSLRLSCAASVRTFSVNAMGRYRQAPGKEREFVAVISSNGGSTYYADSVKGRFTISLDNAKNTVYLQMNSLKPEDTAVYYCNARYWRGWGGRVSKYGYWGHGTQVTVSS”, the “polyreactivity (PSR sort gate)” value is recorded as “high polyreactivity”.
For “QVQHVDSGGGLVQEGGSLRLSCAASGRIFTYNAMGWYRQAPGKERELVAAISRRGGTTYYADSVKGRFTISRDNAKNTVYLQMNSLKPEDTAVYYCAAVVYTRGVTSRPVSRYDYWGQGTQVTVSS” the value was “high polyreactivity”; for “QVQHVESAGGLVQAGGSLRLSCPASGRTINRNAMGWYRQAPGKERELVAAISWSGGRTYYADSVKGRFTISRDTAKNTVYLQMTSLKPEDTAVFSCAAPGNKYWGQGTQVTVSS”, “high polyreactivity”; for “QVQHVESAGRLVQAGGSLRLSCAASGRILVYYALGWYRQPPGKEREFVAAISQRGGSTYYADSVKGRFTISRDNAKNTVYLQMNSLKPDDTEVYYCATRPIQYRRGYDYWGQGTQVTVSS”, “high polyreactivity”.
The value for “QVQHVESGAGLVQAGGSLRLSCAASGLILVYYAMGWYRQAPGKEREFVAAITPGGSTKYADSVKGRFTISRDNAKNTVYLQMNSLKPEDTAVYYCNALSGPYWYSVYQYHQDDYWGQGTQVTVSS” was “low polyreactivity”; that for “QVQHVESGAGLVQAGGSLRLSCAASGSIFEINAMGWYRQAPGKERELVAAITGSGGSTHYADSVKVRFTISRDNAKNTVYLQMNSLKPEDTAVYYCAAVPRYQYGYWGQGNQVTVSS” was “low polyreactivity”.
On to “QVQHVESGAGLVQAGGSLRLTCAASARTFKPYARGWYRQPPGKERELLAVISFSGGSTYYADSVKGRFTISRDNSKNTFYLQMNSLKPEDTAVYYCNAEGVTRQGGYDYWGQGTQVTVSS”, for which the “polyreactivity (PSR sort gate)” value was “high polyreactivity”.
The value for “QVQHVESGARLVQAGGSLRLSCAASGSTFYRNTMGWYRQAPGTERELVAAISSGGSTNYADSVTGRFTISRDNAKNTVYLQMNSLKPEDTGVYYCAAAIRVISDGWYYYWYDYWGQGTPVTVSS” was “high polyreactivity”.
For “QVQHVESGGGIVQAGGSLRLSCAASGRIFDSNAMGWYRQAPGKERELVAAITTSGGSTFYADSVKGRFTISRDNAKNTVYLQMNSLKPEDTAVYYCAAGYSYYYHAIFPFDYWGQGTQVTVSS” the value was “high polyreactivity”.
For “QVQHVESGGGIVQAGGSLRLSCAASGSTFIYNAMGWYRQAPGKERELVAAIDWSGGDTYYADSVKGRFTISRDNAKNTVYLQMNCLKPEDTAVYYCATRWPHYGGYYYWGQGTQVTVSS” the value was “high polyreactivity”; for “QVQHVESGGGIVQAGGSLRLSCAASGSTFRWYAMGWYRQARGQERELVAAFTAGGRTYYADSVKGRFTISRDNAKNTVYLQMNSLKPEDTAVYYCNALGKVWRGGKFGYWGQGTQVTVSS”, “high polyreactivity”.
In the case of “QVQHVESGGGLGQAGGSLRLSCAASGGTFQTNAKGCYRQAPGKERELVAGIRWRGGSTYYADSVKGRFTISRDNAKNTVYLQMKSLKPEDTAVYYCAAYYWQGTYDSRRTGWRLMNYWGQGTQVTVSS”, the “polyreactivity (PSR sort gate)” value is “high polyreactivity”.
